# of clones data for three substances are collected here from patent US20070116705A1.

The assay addresses N-terminus of murine PDE8, containing the PAS/PAC domain, fused to the LexA DNA binding domain (PDE8/LexA) (murine). The assay is described as follows: yeast two-hybrid screen, number of high-stringency positive cDNA clones.

Chain of N-terminus of murine PDE8, containing the PAS/PAC domain, fused to the LexA DNA binding domain (PDE8/LexA) (murine) (P0A7C2 other isoform, or with tags, fused parts or gaps limits assumed): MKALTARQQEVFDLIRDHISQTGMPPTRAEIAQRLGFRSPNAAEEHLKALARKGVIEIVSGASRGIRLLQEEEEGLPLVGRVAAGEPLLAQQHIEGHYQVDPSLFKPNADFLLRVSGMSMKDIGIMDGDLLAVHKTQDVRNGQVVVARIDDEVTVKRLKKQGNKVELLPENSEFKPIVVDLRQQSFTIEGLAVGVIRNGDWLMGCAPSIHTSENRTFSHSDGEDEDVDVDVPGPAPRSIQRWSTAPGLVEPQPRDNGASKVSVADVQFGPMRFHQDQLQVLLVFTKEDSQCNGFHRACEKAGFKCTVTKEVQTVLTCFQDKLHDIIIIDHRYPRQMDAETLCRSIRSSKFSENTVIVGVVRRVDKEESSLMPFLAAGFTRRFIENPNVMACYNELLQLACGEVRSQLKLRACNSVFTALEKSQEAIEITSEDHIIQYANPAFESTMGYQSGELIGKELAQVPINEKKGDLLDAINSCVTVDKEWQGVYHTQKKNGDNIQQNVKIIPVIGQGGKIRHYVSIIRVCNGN

For KIAA0898 (from UniProt O94972 1-964), the # of clones came to 8 clones.

LC8/PIN (Novel) had a # of clones of 15 clones. On to “LC8/PIN (dynein 8 kDa light chain) (from UniProt P63167 1-89)”, for which the # of clones was 30 clones.
